Reference: the nanobody polyreactivity screen of Harvey et al. (2022)

Assay: yeast display, Sf9 membrane polyspecificity reagent, FACS + sequencing; frameworks hold sequencing errors
How it was run: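 Genes from sorted yeast were amplified by colony PCR, read by MiSeq 2 × 250 sequencing and filtered on CDR length. These cells carried a synthetic nanobody library in Saccharomyces cerevisiae BJ5465 and were sorted by FACS into low and high (top ~1%) gates on anti-HA and streptavidin fluorescence. Polyreactivity is labelled according to the gate of origin.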

| Sequence | polyreactivity (PSR sort gate) |
| --- | --- |
| QVQLVESGGGLVQAGGSLRLSCAASGSTFGVYAMGWYRQAPGKERELVAAITKRGGDTYYADSVKGRFTISRDNAKNTVYLQMNSLKPEDTAVYYCAAGLYVSYYWYDYWGQGTQVTVSS | high polyreactivity |
| QVQLVESGGGLVQAGGSLRLSCAASGSTFGVYAMGWYRQAPGKERELVARITSGGSTYYADSVKGRFTITRDNAKKTVYLQRNSLKPEDTAVYYCAAVYRRTRSWKFDYWGQGTQVTVAS | high polyreactivity |
| QVQLVESGGGLVQAGGSLRLSCAASGSTFGVYTMGWYRQAPGKERELVAAITKSGGSTYYADSVKGRFTISRDNAKNTVYLQMNSLKPEDTAVYYCAADATSPLTWFDYWGQGTQVTVSS | low polyreactivity |
| QVQLVESGGGLVQAGGSLRLSCAASGSTFGWNAMGSYRQAPGKERELVAAISSSGGITYYADSVKGRFTISRDNAKNTVYLQMNSLKPEDTAVYYCAARAINTWFRSGVDYGYYLTMDYWGQGTQVTVSS | low polyreactivity |
| QVQLVESGGGLVQAGGSLRLSCAASGSTFGWNAMGWYRPAPGKERELVAAISSSGGSTNYADSVKGRFTISRDNAKNTVYLQMNSLKPEDTAVYYCAARYRTLTKYYWGQGTQVTVSS | low polyreactivity |
| QVQLVESGGGLVQAGGSLRLSCAASGSTFGWNAMGWYRQAPGKERELVAAINKSGGRTYYADSVKGRFTISRDNGKNTVYLQMNRLKPEDTAVYYCAAVTPIRVTSPDYDYWGQGTQVTVSS | low polyreactivity |
| QVQLVESGGGLVQAGGSLRLSCAASGSTFGWYGMGWYRQAPGKERELVASIRWSGGITYYADSVKGRFTISRDNAKNTVYLQMNSLKPEDTAVYSCAARTYRYFGRYDYWGQGTQVTVSS | high polyreactivity |
| QVQLVESGGGLVQAGGSLRLSCAASGSTFGYNAMGWYRQAPGKERELVAAISYSGGSTSYADSVKGRFTLSRDNEKNTVYVQMNSLKPVDAAVYYCARESYSQYSSQALEGYGYWGQGTQVTVSS | low polyreactivity |
| QVQLVESGGGLVQAGGSLRLSCAASGSTFGYNGMGWYRQAPGKERELVAAISGGARTYADSVKGRFTISRDNAKNTVYLQMNSLKPEDTAVYYCAADSPVSVTADDGYWGQGTQVTVSS | low polyreactivity |
| QVQLVESGGGLVQAGGSLRLSCAASGSTFGYNTMGWYRQAPGKERELVASITGRGGSTYYADSVKGRFTISRDNAKNTVYLQMNSLKPEDTAVYYCAAAWKAYRRYGYWGQGTQVTVSS | high polyreactivity |
| QVQLVESGGGLVQAGGSLRLSCAASGSTFGYNTMGWYRQAPGKEREWVAAITGTGRTNYADSVKGRFTISRDNAKNTVYLQMNSLKPEDTAVYYCAASLWQRAIGRYEYWGQGTQVTVSS | high polyreactivity |
| QVQLVESGGGLVQAGGSLRLSCAASGSTFGYYAMGWYRQAPGKERELVAAINSGDSTSYAESVKGRFTISRDNAKNTVYLQMNSLKPEDTAVYYCAVRPRRHQYGYWGQGTQVTVSS | low polyreactivity |
| QVQLVESGGGLVQAGGSLRLSCAASGSTFGYYAMGWYRQAPGKERELVAAISVRGGRTYYADSVKGRFTISRDNAKNTVYVQMKSLKPEDTAVYYCATLLPGLGRYGYDYWGQGTQVTVSS | high polyreactivity |
| QVQLVESGGGLVQAGGSLRLSCAASGSTFGYYAMGWYRQAPGKERELVAAITSGGSTYYADSVKGRFTISRDNAKNTVYLQMNSLKPEDTAVYYCNRTYYWYWRYDYWGQGTQVTVSS | low polyreactivity |
| QVQLVESGGGLVQAGGSLRLSCAASGSTFGYYAMGWYRQAPGKERELVASINWRGDSTYYADSVKGRFTISRDNAKNTVYLQMNSLKPEDTAVYYCNVKPSARGSPLYDYWGQGTQVTVSS | high polyreactivity |
| QVQLVESGGGLVQAGGSLRLSCAASGSTFGYYAMGWYRQAPGKERELVASISSRGGSTYYADSVKGRFTISRDNAKNTVYLQMNSLKPEDTAVYSCAARYGGFPVPGRYNYWGQGTQVTVSS | high polyreactivity |
| QVQLVESGGGLVQAGGSLRLSCAASGSTFGYYAMGWYRQAPGKERELVATINRSGGSTYYADSVKGRFTISRDNAKYTVYLQMNSLKPEDTAVYYCNKLAYAGFRYIGSGYWGQGTQVTVSS | low polyreactivity |
| QVQLVESGGGLVQAGGSLRLSCAASGSTFGYYAMGWYRQAPGKERELVATITIGGSTHYADSVKGRFTISRDNAKNTVYLQMNSLKPEDTAVYYCAARYAYYTARYTQVKGLDYWGQGTQVTVSS | high polyreactivity |
| QVQLVESGGGLVQAGGSLRLSCAASGSTFGYYAMGWYRQAPGRERELVAAISYRSGSTYYADSVKGRFTISRDNAKNTVYLQMNSLKPEDTAVYYCAARFGRGSRYYYWGQGTQVTVSS | high polyreactivity |
| QVQLVESGGGLVQAGGSLRLSCAASGSTFGYYTMGWYRQAPGKERELVAAISGSGGRTYYADSVKGRFTISRDNAKKTVNLQMNSLKPEDTAVYYCAAEGRSDWGGDDYYWGQGTQVTVSS | low polyreactivity |
| QVQLVESGGGLVQAGGSLRLSCAASGSTFHANAMGWYRQAPGKERELVAAISRSGGSTNYADSVKGRFTISRDNAKNTVYLQMNSLKPEDTAVYYCAKRAWTGYGYYYWGQGTQVTVSS | high polyreactivity |
